Test [1] concerns the target Simian virus 40 large T antigen (L-Tag) (simian virus 40) (UniProt P03070).
Test [2] has as its target Human wild-type DNA polymerase δ (WT Pol δ) (human) (UniProt P28340). Nature of the test: MST; His6-tagged Pol δ labelled with RED-Tris-NTA, 20 nM final; L-Tag titrated in 16 concentrations beginning with 500 nM; PBS-T buffer; incubated 40 min at 37°C; Monolith NT.115, premium-coated capillaries.
For test [3] the target is unchanged.

pKd: −log10 of the molar value.

For the substance “Human fork protection complex (FPC): Claspin, TIMELESS, Tipin (from UniProt Q9HAW4 1-1339; Q9UNS1 1-1208; Q9BVW5 1-301)”, the saturation concentration of FPC for stimulating L-Tag unwinding in the bulk assay (25 nM L-Tag, 0.5 nM forked DNA) in test [1] was under 8 nM.
The substance “Human mini-chromosome maintenance protein 10 (Mcm10) (from UniProt Q7L590 1-875) (natural protein)” gave a saturation concentration of Mcm10 for stimulating L-Tag unwinding in the bulk assay (25 nM L-Tag, 0.5 nM forked DNA) in test [1] of under 8 nM.
As usually defined, the pKd is the Kd on a negative log10 scale, so that one unit is a factor of ten. Low readings indicate a large Kd, high ones a small Kd. Consider “Simian virus 40 large T antigen (L-Tag) (from UniProt P03070 1-708) (enzyme)”, for which the pKd in test [2] was 8.17. The same substance displayed a lifetime of Pol δ–PCNA on DNA in single-molecule flow-stretching assays: primer extension alone against leading-strand synthesis with L-Tag in test [3] of 3 min.

For the origin of these results see publication PMC11347169.
